From IntAct's records for PubMed 19838187

What was measured:
tnr6c_human TNRC6C = tnr6c_human TNRC6C (UniProt Q9HCJ0)
tnr6b_human TNRC6B = tnr6b_human TNRC6B (UniProt Q9UPQ9)
tnr6b_mouse Tnrc6b = tnr6b_mouse Tnrc6b (UniProt Q8BKI2)

Measured: effect of a mutation on the interaction

Sequence of Protein argonaute-2 (Homo sapiens), Q9UKV8 F470V;F505V (Q9UKV8 whole entry F470V/F505V): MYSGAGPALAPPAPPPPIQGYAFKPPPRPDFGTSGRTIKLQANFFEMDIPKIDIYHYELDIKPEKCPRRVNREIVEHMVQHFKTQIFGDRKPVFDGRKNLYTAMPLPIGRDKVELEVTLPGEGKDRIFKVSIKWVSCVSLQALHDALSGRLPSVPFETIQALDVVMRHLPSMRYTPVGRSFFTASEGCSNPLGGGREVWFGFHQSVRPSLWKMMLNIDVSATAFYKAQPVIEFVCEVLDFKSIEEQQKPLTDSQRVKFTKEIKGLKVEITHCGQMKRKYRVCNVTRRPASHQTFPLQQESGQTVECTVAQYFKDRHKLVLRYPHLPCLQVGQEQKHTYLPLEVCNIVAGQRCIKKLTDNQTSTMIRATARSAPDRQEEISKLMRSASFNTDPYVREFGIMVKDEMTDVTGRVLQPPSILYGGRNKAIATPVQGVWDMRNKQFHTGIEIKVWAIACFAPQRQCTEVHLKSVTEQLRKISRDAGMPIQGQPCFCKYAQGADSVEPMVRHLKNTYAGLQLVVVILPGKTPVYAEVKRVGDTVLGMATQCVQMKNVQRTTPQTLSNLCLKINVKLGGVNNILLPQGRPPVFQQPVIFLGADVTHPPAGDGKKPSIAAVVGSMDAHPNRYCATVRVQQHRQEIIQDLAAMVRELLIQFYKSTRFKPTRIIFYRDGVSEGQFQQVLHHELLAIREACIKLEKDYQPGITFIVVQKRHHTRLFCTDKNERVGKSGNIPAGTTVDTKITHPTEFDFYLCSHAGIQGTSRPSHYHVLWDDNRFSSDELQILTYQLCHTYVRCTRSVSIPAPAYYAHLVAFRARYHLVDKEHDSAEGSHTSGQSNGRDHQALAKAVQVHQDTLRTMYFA
Sequence of tnr6b_mouse Tnrc6b (Q8BKI2 whole entry): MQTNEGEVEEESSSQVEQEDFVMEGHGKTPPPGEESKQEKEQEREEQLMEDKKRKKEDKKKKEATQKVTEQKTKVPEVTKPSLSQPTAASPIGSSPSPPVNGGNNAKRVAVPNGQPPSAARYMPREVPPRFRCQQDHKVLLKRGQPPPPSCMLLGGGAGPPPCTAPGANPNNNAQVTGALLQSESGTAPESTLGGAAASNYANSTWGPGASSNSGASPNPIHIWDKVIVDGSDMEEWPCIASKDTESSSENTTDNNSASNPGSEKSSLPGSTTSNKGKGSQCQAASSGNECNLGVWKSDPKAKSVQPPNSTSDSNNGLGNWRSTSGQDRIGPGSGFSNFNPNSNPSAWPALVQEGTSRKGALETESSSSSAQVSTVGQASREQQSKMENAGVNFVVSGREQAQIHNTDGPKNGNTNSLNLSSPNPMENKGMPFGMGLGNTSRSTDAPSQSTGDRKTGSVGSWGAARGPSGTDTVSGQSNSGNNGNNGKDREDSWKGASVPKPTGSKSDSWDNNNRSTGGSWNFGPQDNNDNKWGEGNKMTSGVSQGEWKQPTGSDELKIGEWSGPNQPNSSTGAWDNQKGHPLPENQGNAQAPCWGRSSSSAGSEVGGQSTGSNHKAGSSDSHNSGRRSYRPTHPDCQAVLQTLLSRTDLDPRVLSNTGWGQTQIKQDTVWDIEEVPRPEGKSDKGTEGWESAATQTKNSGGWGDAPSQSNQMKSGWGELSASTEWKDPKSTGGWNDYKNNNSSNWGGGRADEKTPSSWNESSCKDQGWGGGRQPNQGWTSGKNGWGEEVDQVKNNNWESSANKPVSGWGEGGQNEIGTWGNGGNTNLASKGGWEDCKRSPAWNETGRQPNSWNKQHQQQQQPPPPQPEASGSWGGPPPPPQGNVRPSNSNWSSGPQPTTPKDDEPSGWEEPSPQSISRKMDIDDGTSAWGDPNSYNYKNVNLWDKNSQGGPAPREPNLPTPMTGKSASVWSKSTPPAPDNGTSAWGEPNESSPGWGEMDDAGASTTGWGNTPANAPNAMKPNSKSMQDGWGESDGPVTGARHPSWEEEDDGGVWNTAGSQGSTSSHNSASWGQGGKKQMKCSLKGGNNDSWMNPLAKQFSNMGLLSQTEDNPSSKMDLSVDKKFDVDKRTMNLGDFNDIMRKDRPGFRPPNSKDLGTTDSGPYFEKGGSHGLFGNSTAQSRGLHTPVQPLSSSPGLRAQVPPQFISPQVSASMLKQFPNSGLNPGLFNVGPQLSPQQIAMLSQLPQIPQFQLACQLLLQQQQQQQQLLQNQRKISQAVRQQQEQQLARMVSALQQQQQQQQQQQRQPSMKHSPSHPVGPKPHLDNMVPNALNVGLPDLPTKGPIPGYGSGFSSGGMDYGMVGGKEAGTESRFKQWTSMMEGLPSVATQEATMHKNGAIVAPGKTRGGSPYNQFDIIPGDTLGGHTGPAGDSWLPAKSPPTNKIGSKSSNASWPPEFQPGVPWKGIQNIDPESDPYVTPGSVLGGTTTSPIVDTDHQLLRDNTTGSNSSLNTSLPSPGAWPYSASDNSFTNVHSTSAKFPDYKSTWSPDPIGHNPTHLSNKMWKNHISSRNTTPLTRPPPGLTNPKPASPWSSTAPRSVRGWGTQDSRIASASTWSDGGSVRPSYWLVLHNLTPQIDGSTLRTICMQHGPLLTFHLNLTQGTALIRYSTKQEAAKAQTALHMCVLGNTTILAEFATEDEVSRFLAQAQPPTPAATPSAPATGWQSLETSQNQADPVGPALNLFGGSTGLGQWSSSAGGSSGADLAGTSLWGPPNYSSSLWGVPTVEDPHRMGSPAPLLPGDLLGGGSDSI
Sequence of tnr6b_human TNRC6B (Q9UPQ9 whole entry): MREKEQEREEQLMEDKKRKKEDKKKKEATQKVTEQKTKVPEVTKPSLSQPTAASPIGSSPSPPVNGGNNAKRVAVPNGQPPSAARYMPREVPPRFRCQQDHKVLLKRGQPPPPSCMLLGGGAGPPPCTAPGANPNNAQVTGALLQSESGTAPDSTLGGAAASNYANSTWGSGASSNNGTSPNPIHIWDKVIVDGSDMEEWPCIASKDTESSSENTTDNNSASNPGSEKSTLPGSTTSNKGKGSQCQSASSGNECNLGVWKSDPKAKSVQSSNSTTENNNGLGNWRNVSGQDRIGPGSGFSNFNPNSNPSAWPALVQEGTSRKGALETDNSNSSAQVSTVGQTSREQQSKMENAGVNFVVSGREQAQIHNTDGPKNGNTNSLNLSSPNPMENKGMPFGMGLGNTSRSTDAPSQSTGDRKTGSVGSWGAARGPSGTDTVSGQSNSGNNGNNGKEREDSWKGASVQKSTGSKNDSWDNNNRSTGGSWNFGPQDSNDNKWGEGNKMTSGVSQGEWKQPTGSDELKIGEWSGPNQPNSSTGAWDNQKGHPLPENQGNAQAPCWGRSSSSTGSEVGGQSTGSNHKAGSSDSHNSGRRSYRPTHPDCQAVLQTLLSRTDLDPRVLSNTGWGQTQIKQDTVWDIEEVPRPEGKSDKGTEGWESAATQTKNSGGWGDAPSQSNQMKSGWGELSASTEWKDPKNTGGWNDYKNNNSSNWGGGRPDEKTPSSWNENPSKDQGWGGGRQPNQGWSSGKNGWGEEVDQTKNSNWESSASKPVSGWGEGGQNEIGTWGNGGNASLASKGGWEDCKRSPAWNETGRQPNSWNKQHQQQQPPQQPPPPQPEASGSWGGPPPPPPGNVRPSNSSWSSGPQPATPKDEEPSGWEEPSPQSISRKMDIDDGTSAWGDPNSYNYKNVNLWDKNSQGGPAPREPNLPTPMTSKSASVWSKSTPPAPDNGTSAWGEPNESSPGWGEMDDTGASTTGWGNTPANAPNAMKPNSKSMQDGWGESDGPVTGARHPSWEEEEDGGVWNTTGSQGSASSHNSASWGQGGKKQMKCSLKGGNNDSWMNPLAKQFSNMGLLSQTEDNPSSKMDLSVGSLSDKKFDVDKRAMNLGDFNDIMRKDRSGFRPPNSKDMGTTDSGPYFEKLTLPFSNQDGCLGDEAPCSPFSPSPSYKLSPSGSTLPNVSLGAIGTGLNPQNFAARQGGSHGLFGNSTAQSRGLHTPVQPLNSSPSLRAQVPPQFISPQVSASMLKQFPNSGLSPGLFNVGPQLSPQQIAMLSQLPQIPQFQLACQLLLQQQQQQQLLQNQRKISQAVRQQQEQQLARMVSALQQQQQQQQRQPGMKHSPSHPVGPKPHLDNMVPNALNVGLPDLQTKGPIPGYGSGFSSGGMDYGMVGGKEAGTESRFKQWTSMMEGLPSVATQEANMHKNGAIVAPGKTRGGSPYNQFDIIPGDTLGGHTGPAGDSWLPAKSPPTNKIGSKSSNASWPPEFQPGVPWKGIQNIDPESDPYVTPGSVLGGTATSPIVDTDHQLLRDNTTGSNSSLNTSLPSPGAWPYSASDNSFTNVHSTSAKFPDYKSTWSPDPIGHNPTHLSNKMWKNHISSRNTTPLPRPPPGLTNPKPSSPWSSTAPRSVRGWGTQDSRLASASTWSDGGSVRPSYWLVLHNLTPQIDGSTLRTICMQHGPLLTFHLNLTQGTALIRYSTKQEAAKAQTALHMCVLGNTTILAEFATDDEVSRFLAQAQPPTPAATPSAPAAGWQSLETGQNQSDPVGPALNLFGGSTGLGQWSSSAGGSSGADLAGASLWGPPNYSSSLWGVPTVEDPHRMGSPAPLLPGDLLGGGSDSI

Protein argonaute-2 (Homo sapiens), Q9UKV8 F470V;F505V
disrupting interaction: all assays above
